Results from US20030175822A1.

Columns and labels:
[1] = biological target: mu3 opiate receptor (human) (UniProt P35372); experiment: displacement of [3H]-dihydromorphine, membrane suspension of human granulocytes
[2] = biological target: mu3 opiate receptor (human) (UniProt P35372); experiment: displacement of [3H]-dihydromorphine, membrane suspension of normal human lung
[3] = biological target: mu3 opiate receptor (human) (UniProt P35372); experiment: displacement of [3H]-dihydromorphine, membrane suspension of human lung non-small cell carcinoma

Measured: IC50

mu3 opiate receptor (human), sequence (P35372 whole entry): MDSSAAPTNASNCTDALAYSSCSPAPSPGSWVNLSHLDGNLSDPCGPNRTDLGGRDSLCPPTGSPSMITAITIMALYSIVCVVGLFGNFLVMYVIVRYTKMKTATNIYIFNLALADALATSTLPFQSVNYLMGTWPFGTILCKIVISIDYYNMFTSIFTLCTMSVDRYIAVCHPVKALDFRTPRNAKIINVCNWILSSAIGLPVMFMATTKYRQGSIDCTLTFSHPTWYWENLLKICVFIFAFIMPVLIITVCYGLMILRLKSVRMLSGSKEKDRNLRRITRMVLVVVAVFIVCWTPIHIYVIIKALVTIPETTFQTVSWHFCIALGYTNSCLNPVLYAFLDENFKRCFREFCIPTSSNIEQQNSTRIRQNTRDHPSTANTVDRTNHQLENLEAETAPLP

(D-Ala^2, Leu^5)-enkephalin (from UniProt P01210 230-234) (peptide)
> 1000 nM: all assays above

(D-Pen^2, D-Pen^5)-enkephalin (peptide)
> 1000 nM: all assays above

Deltorphin (peptide)
> 1000 nM: all assays above

Dynorphin 1-17 (from UniProt P01213 207-223) (peptide)
> 1000 nM: all assays above
